The source of these data is the Human Domainome abundance scans (Beltran et al. 2025).

Sequences and labels used below:
B1: Zinc finger homeobox protein 4, residues 2086 to 2141; numbered along this chain, Q86UP3 (parent)
chain: RPRTRITDDQLKILRAYFDINNSPSEEQIQEMAEKSGLSQKVIKHWFRNTLFKERQ

± gives the uncertainty stated by the source.

Variants of B1 are the subject of the data set. Briefly: abundance fitness (aPCA) (normalised: wild type 0, dead -1); higher = more abundant; growth selection in yeast, the domain comes from the species named. The conditions noted are these: Homo sapiens.
As for RPRTRITDMQLKILRAYFDINNSPSEEQIQEMAEKSGLSQKVIKHWFRNTLFKERQ [D9M], the abundance fitness is -0.084 ± 0.091.
For RPRTRITDGQLKILRAYFDINNSPSEEQIQEMAEKSGLSQKVIKHWFRNTLFKERQ [D9G], the abundance fitness is -0.14 ± 0.078.
For the variant RPRTRITDYQLKILRAYFDINNSPSEEQIQEMAEKSGLSQKVIKHWFRNTLFKERQ [D9Y], the abundance fitness was -0.041 ± 0.069.
Regarding RPRTRITDCQLKILRAYFDINNSPSEEQIQEMAEKSGLSQKVIKHWFRNTLFKERQ [D9C], the abundance fitness is -0.011 ± 0.094.
In the case of RPRTRITDLQLKILRAYFDINNSPSEEQIQEMAEKSGLSQKVIKHWFRNTLFKERQ [D9L] it was -0.043 ± 0.064; in that of RPRTRITDQQLKILRAYFDINNSPSEEQIQEMAEKSGLSQKVIKHWFRNTLFKERQ [D9Q], -0.083 ± 0.12.
For RPRTRITDKQLKILRAYFDINNSPSEEQIQEMAEKSGLSQKVIKHWFRNTLFKERQ [D9K], the abundance fitness is -0.087 ± 0.09.
Turning to RPRTRITDVQLKILRAYFDINNSPSEEQIQEMAEKSGLSQKVIKHWFRNTLFKERQ [D9V], the abundance fitness is -0.162 ± 0.073.
As for RPRTRITDRQLKILRAYFDINNSPSEEQIQEMAEKSGLSQKVIKHWFRNTLFKERQ [D9R], the abundance fitness is -0.134 ± 0.078.
With RPRTRITDEQLKILRAYFDINNSPSEEQIQEMAEKSGLSQKVIKHWFRNTLFKERQ [D9E], the abundance fitness is -0.003 ± 0.11.
Regarding RPRTRITDDQEKILRAYFDINNSPSEEQIQEMAEKSGLSQKVIKHWFRNTLFKERQ [L11E], the abundance fitness is 0.059 ± 0.097.
Turning to RPRTRITDDQDKILRAYFDINNSPSEEQIQEMAEKSGLSQKVIKHWFRNTLFKERQ [L11D], the abundance fitness is -0.069 ± 0.13.
As for RPRTRITDDQMKILRAYFDINNSPSEEQIQEMAEKSGLSQKVIKHWFRNTLFKERQ [L11M], the abundance fitness is -0.148 ± 0.11.
As to RPRTRITDDQSKILRAYFDINNSPSEEQIQEMAEKSGLSQKVIKHWFRNTLFKERQ [L11S], the abundance fitness was -0.043 ± 0.073.
Regarding RPRTRITDDQHKILRAYFDINNSPSEEQIQEMAEKSGLSQKVIKHWFRNTLFKERQ [L11H], the abundance fitness was -0.165 ± 0.11.
On to RPRTRITDDQGKILRAYFDINNSPSEEQIQEMAEKSGLSQKVIKHWFRNTLFKERQ [L11G], for which the abundance fitness was -0.172 ± 0.065.
Take RPRTRITDDQTKILRAYFDINNSPSEEQIQEMAEKSGLSQKVIKHWFRNTLFKERQ [L11T]: the abundance fitness was -0.115 ± 0.087.
For RPRTRITDDQAKILRAYFDINNSPSEEQIQEMAEKSGLSQKVIKHWFRNTLFKERQ [L11A], the abundance fitness is -0.193 ± 0.069.
In the case of RPRTRITDDQKKILRAYFDINNSPSEEQIQEMAEKSGLSQKVIKHWFRNTLFKERQ [L11K] it was 0.138 ± 0.11; in that of RPRTRITDDQVKILRAYFDINNSPSEEQIQEMAEKSGLSQKVIKHWFRNTLFKERQ [L11V], -0.18 ± 0.074; in that of RPRTRITDDQNKILRAYFDINNSPSEEQIQEMAEKSGLSQKVIKHWFRNTLFKERQ [L11N], -0.024 ± 0.17.
For RPRTRITDDQWKILRAYFDINNSPSEEQIQEMAEKSGLSQKVIKHWFRNTLFKERQ [L11W], the abundance fitness is -0.205 ± 0.077.
As to RPRTRITDDQIKILRAYFDINNSPSEEQIQEMAEKSGLSQKVIKHWFRNTLFKERQ [L11I], the abundance fitness was -0.14 ± 0.13.
For the variant RPRTRITDDQCKILRAYFDINNSPSEEQIQEMAEKSGLSQKVIKHWFRNTLFKERQ [L11C], the abundance fitness was -0.392 ± 0.096.
In the case of RPRTRITDDQQKILRAYFDINNSPSEEQIQEMAEKSGLSQKVIKHWFRNTLFKERQ [L11Q] it was -0.147 ± 0.1.
Regarding RPRTRITDDQRKILRAYFDINNSPSEEQIQEMAEKSGLSQKVIKHWFRNTLFKERQ [L11R], the abundance fitness was -0.026 ± 0.069.
In the case of RPRTRITDDQPKILRAYFDINNSPSEEQIQEMAEKSGLSQKVIKHWFRNTLFKERQ [L11P] it was -0.769 ± 0.11.
In the case of RPRTRITDDQYKILRAYFDINNSPSEEQIQEMAEKSGLSQKVIKHWFRNTLFKERQ [L11Y] it was 0.155 ± 0.13.
As for RPRTRITDDQFKILRAYFDINNSPSEEQIQEMAEKSGLSQKVIKHWFRNTLFKERQ [L11F], the abundance fitness is -0.134 ± 0.086.
Regarding RPRTRIYDDQLKILRAYFDINNSPSEEQIQEMAEKSGLSQKVIKHWFRNTLFKERQ [T7Y], the abundance fitness was -0.491 ± 0.093.
RPRTRISDDQLKILRAYFDINNSPSEEQIQEMAEKSGLSQKVIKHWFRNTLFKERQ [T7S]: the abundance fitness is -0.125 ± 0.083.
In the case of RPRTRIWDDQLKILRAYFDINNSPSEEQIQEMAEKSGLSQKVIKHWFRNTLFKERQ [T7W] it was -0.774 ± 0.38.
As for RPRTRIEDDQLKILRAYFDINNSPSEEQIQEMAEKSGLSQKVIKHWFRNTLFKERQ [T7E], the abundance fitness was determined as 0.082 ± 0.19.
For RPRTRIPDDQLKILRAYFDINNSPSEEQIQEMAEKSGLSQKVIKHWFRNTLFKERQ [T7P], the abundance fitness is -0.241 ± 0.1.
As for RPRTRIFDDQLKILRAYFDINNSPSEEQIQEMAEKSGLSQKVIKHWFRNTLFKERQ [T7F], the abundance fitness was -0.352 ± 0.1.
Consider RPRTRILDDQLKILRAYFDINNSPSEEQIQEMAEKSGLSQKVIKHWFRNTLFKERQ [T7L], for which the abundance fitness is -0.271 ± 0.079.
Turning to RPRTRINDDQLKILRAYFDINNSPSEEQIQEMAEKSGLSQKVIKHWFRNTLFKERQ [T7N], the abundance fitness is -0.038 ± 0.092.
With RPRTRIIDDQLKILRAYFDINNSPSEEQIQEMAEKSGLSQKVIKHWFRNTLFKERQ [T7I], the abundance fitness was -0.288 ± 0.081.
For the variant RPRTRIVDDQLKILRAYFDINNSPSEEQIQEMAEKSGLSQKVIKHWFRNTLFKERQ [T7V], the abundance fitness was -0.217 ± 0.1.
In the case of RPRTRICDDQLKILRAYFDINNSPSEEQIQEMAEKSGLSQKVIKHWFRNTLFKERQ [T7C] it was -0.337 ± 0.14.
With RPRTRIRDDQLKILRAYFDINNSPSEEQIQEMAEKSGLSQKVIKHWFRNTLFKERQ [T7R], the abundance fitness was -0.054 ± 0.12.
For the variant RPRTRIHDDQLKILRAYFDINNSPSEEQIQEMAEKSGLSQKVIKHWFRNTLFKERQ [T7H], the abundance fitness is -0.344 ± 0.096.
RPRTRIKDDQLKILRAYFDINNSPSEEQIQEMAEKSGLSQKVIKHWFRNTLFKERQ [T7K]: the abundance fitness was -0.344 ± 0.23.
Turning to RPRTRIMDDQLKILRAYFDINNSPSEEQIQEMAEKSGLSQKVIKHWFRNTLFKERQ [T7M], the abundance fitness amounted to 0.038 ± 0.12.
Take RPRTRIQDDQLKILRAYFDINNSPSEEQIQEMAEKSGLSQKVIKHWFRNTLFKERQ [T7Q]: the abundance fitness was -0.42 ± 0.17.
With RPRTRIADDQLKILRAYFDINNSPSEEQIQEMAEKSGLSQKVIKHWFRNTLFKERQ [T7A], the abundance fitness stood at 0.02 ± 0.12.
RPRTRIDDDQLKILRAYFDINNSPSEEQIQEMAEKSGLSQKVIKHWFRNTLFKERQ [T7D]: the abundance fitness stood at 0.174 ± 0.14.
